B1: SHO1 (protein, UniProt P40073 1-367, looked up)
High osmolarity signaling …: MSISSKIRPTPRKPSRMATDHSFKMKKFYADPFAISSISLAIVSWVIAIGGSISSASTNESFPRFTWWGIVYQFLIICSLMLFYCFDLVDHYRIFITTSIAVAFVYNTNSATNLVYADGPKKAAASAGVILLSIINLIWILYYGGDNASPTNRWIDSFSIKGIRPSPLENSLHRARRRGNRNTTPYQNNVYNDAIRDSGYATQFDGYPQQQPSHTNYVSSTALAGFENTQPNTSEAVNLHLNTLQQRINSASNAKETNDNSNNQTNTNIGNTFDTDFSNGNTETTMGDTLGLYSDIGDDNFIYKAKALYPYDADDDDAYEISFEQNEILQVSDIEGRWWKARRANGETGIIPSNYVQLIDGPEEMHR
B2: PEX13 (protein, UniProt P80667 1-386, looked up)
Peroxisomal membrane protein …: MSSTAVPRPKPWETSASLEEPQRNAQSLSAMMTSNQQDSRPTEESNNSNSASESAPEVLPRPAALNSSGTYGESNTIPGIYGNSNYGIPYDNNPYSMNSIYGNSIGRYGYGGSYYGNNYGSFYGGGYGAGAGYGMNNGSGLGESTKATFQLIESLIGAVTGFAQMLESTYMATHNSFFTMISVAEQFGNLKEMLGSFFGIFAIMKFLKKILYRATKGRLGIPPKNFAESEGSKNKLIEDFQKFNDSGTINSNEKATRRKISWKPLLFFLMAVFGFPYLLNKFITKLQTSGTIRASQGNGSEPIDPSKLEFARALYDFVPENPEMEVALKKGDLMAILSKKDPLGRDSDWWKVRTKNGNIGYIPYNYIEIIKRRKKIEHVDDETRTH
B3: WT (protein, UniProt P15891 2-592, looked up)
Actin-binding protein: ALEPIDYTTHSREIDAEYLKIVRGSDPDTTWLIISPNAKKEYEPESTGSSFHDFLQLFDETKVQYGLARVSPPGSDVEKIIIIGWCPDSAPLKTRASFAANFAAVANNLFKGYHVQVTARDEDDLDENELLMKISNAAGARYSIQTSSKQQGKASTPPVKKSFTPSKSPAPVSKKEPVKTPSPAPAAKISSRVNDNNDDDDWNEPELKERDFDQAPLKPNQSSYKPIGKIDLQKVIAEEKAKEDPRLVQKPTAAGSKIDPSSDIANLKNESKLKRDSEFNSFLGTTKPPSMTESSLKNDDDKVIKGFRNEKSPAQLWAERKAKQNSGNAETKAEAPKPEVPEDEPEGEPDVKDLKSKFEGLAASEKEEEEMENKFAPPPKKSEPTIISPKPFSKPQEPVKAEEAEQPKTDYKKIGNPLPGMHIEADNEEEPEENDDDWDDDEDEAAQPPLPSRNVASGAPVQKEEPEQEEIAPSLPSRNSIPAPKQEEAPEQAPEEEIEEEAEEAAPQLPSRSSAAPPPPPRRATPEKKPKENPWATAEYDYDAAEDNELTFVENDKIINIEFVDDDWWLGELEKDGSKGLFPSNYVSLGN
B4: MYO5 (protein, UniProt Q04439 1-1219, looked up)
Myosin-5: MAILKRGARKKVHQEPAKRSANIKKATFDSSKKKEVGVSDLTLLSKISDEAINENLKKRFLNATIYTYIGHVLISVNPFRDLGIYTDAVMNEYKGKNRLEVPPHVFAIAESMYYNMKSYNENQCVIISGESGAGKTEAAKRIMQYIAAASSTHTESIGKIKDMVLATNPLLESFGCAKTLRNNNSSRHGKYLEIKFNNQFEPCAGNITNYLLEKQRVVSQIKNERNFHIFYQFTKGASDAYRQTFGVQKPEQYVYTAAAGCISAETIDDLQDYQETLKAMRVIGLGQEEQDQIFRMLAAILWIGNVSFIENEEGNAQVRDTSVTDFVAYLLQIDSQLLIKSLVERIMETNHGMKRGSVYHVPLNIVQADAVRDALAKAIYNNLFDWIVSRVNKSLQAFPGAEKSIGILDIYGFEIFEHNSFEQICINYVNEKLQQIFIQLTLKSEQETYEREKIQWTPIKYFDNKVVCDLIEARRPPGIFAAMNDSVATAHADSNAADQAFAQRLNLFTTNPHFDLRSNKFVIKHYAGDVTYDIDGITDKNKDQLQKDLVELIGTTTNTFLATIFPDTVDRESKRRPPTAGDKIIKSANDLVETLSKAQPSYIRTIKPNETKSPNDYDDRQVLHQIKYLGLQENVRIRRAGFAYRQVFEKFVERFYLLSPHCSYAGDYTWQGDTLDAVKYILQDSSIPQQEYQLGVTSVFIKTPETLFALEHMRDRYWHNMAARIQRAWRRFLQRRIDAATKIQRTIRERKEGNKYEKLRDYGTKVLGGRKERRSMSLLGYRAFMGDYLSCNESKSKGAYIKRQVSIKEKVIFSIHGEALHTKFGRSAQRLKKTFLLTPTTLYIVGQTLVQNAMTYTQDYKIDVRNIQAVSLTNLQDDWVAIKLASSGQPDPLINTYFKTELITHLKRLNDKIQIKIGSAIEYQKKPGKLHSVKCQINESAPKYGDIYKSSTISVRRGNPPNSQVHKKPRKKSSISSGYHASSSQATRRPVSIAAAQHVPTAPASRHSKKPAPPPPGMQNKAATRRSVPNPASTLTASQSNARPSPPTAATRATPAATPAAAAMGSGRQANIPPPPPPPPPSSKPKEPMFEAAYDFPGSGSPSELPLKKGDVIYITREEPSGWSLGKLLDGSKEGWVPTAYMKPHSGNNNIPTPPQNRDVPKPVLNSVQHDNTSANVIPAAAQASLGDGLANALAARANKMRLESDDEEANEDEEEDDW
B5: BOI1 (protein, UniProt P38041 1-980, looked up)
BEM1-interacting protein 1: MSLEGNTLGKGAKSFPLYIAVNQYSKRMEDELNMKPGDKIKVITDDGEYNDGWYYGRNLRTKEEGLYPAVFTKRIAIEKPENLHKSPTQESGNSGVKYGNLNDSASNIGKVSSHQQENRYTSLKSTMSDIDKALEELRSGSVEQEVSKSPTRVPEVSTPQLQDEQTLIQEKTRNEENTTHDSLFSSTADLNLSSESLKNISKSNISTKSLEPSSESVRQLDLKMAKSWSPEEVTDYFSLVGFDQSTCNKFKEHQVSGKILLELELEHLKELEINSFGIRFQIFKEIRNIKSAIDSSSNKLDADYSTFAFENQAAQLMPAATVNRDEIQQQISSKCNKLSSESSDRKSSSVTTELQRPSSVVVNPNFKLHDPAEQILDMTEVPNLFADKDIFESPGRAPKPPSYPSPVQPPQSPSFNNRYTNNNARFPPQTTYPPKNKNPTVYSNGLIPNSSTSSDNSTGKFKFPAMNGHDSNSRKTTLTSATIPSINTVNTDESLPAISNISSNATSHHPNRNSVVYNNHKRTESGSSFVDLFNRISMLSPVKSSFDEEETKQPSKASRAVFDSARRKSSYGHSRDASLSEMKKHRRNSSILSFFSSKSQSNPTSPTKQTFTIDPAKMTSHSRSQSNSYSHARSQSYSHSRKHSLVTSPLKTSLSPINSKSNIALAHSETPTSSNNKEAVSQPSEGKHKHKHKHKSKHKHKNSSSKDGSSEEKSKKKLFSSTKESFVGSKEFKRSPSELTQKSTKSILPRSNAKKQQTSAFTEGIRSITAKESMQTADCSGWMSKKGTGAMGTWKQRFFTLHGTRLSYFTNTNDEKERGLIDITAHRVLPASDDDRLISLYAASLGKGKYCFKLVPPQPGSKKGLTFTEPRVHYFAVENKSEMKAWLSAIIKATIDIDTSVPVISSYATPTIPLSKAQTLLEEARLQTQLRDAEEEEGRDQFGWDDTQNKRNSNYPIEQDQFETSDYLESSAFEYPGGRL
B6: PIN3 (protein, UniProt Q06449 2-215, looked up)
[PSI+] inducibility protein 3: SASLINRSLTNIRTELDFLKGSNVISNDVYDQINKSLPAKWDPANAPRNASPASLEYVEALYQFDPQQDGDLGLKPGDKVQLLEKLSPEWYKGSCNGRTGIFPANYVKPAFSGSNGPSNLPPPPQYKAQELQQIPTQNSAASSYQQQPFPPPSTNYYQQPQQQPQQAPPPQQQQQQQQHQSSHSHLKSFGSKLGNAAIFGAGASIGSDIVNNIF

Tests used:
[1] = tested on: 575 putative partners (preys) of 22 WT SH3-containing proteins; experiment: DHFR-PCA on solid medium, WT and SH3-deleted baits (Fig. 1B); assay type: cell-based, Saccharomyces cerevisiae; details: number of PPIs; SH3 domain in its own protein; DHFR-PCA; Fig2D,S2F
How it was run: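 In S. cerevisiae, 22 SH3-containing baits fused genomically to DHFR F[1,2], either WT or with each SH3 replaced via CRISPR by a poly-Gly/Ser linker, screened against 575 DHFR F[3] preys plus 40 negative controls in 1536 arrays, preys duplicated at randomized positions.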

Abp1 (1xFLAG) = experiment: Western blot expression level of Abp1 SH3-swapped baits (Fig. S2A-B); assay type: cell-based, Saccharomyces cerevisiae; parameters: Flag (2 bands): unit not given here; details: sheet FigS2A-B
How it was run: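 Yeast expressing DHFR F[1,2]-FLAG-tagged baits grown in synthetic complete medium at 30 °C to OD600 ~1.0, lysed with glass beads in Tris pH 7.4/150 mM NaCl/1% Triton X-100. Baits immunoprecipitated on FLAG-M2 beads 120 min at 4 °C, resolved on 10% SDS-PAGE, probed with anti-FLAG HRP (ECL), signals quantified by imager.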

Molecule | SH3-dependent PPIs [1] | Ratio Swap/WT Flag (Abp1 (1xFLAG); Flag signal relative to Abp1 WT (Abp1-1 to Abp1-4 = 1)) | Flag (2 bands) (Abp1 (1xFLAG); Western blot Flag signal (2 bands), Abp1 WT, SH3-deleted or SH3-swapped)
B1 | 2 |  | 
B2 | 1 |  | 
B3 |  | 0.6226 | 60270
B4 | 19 |  | 
B5 | 3 |  | 
B6 | 13 |  | 

— paper PMC7954794, “Protein context shapes the specificity of SH3 domain-mediated interactions in vivo” (Nature Communications, 2021)
